Results reported in US20150218243A1 (SAMSUNG ELECTRONICS, published 2015).

Target: T1, recombinant full length Human Cdk6 (amino acids 1-326) with N-terminal His tag (Abcam ab84717) (human, UniProt Q00534 1-326)
T1 construct: range 1-326; Bought protein, coated on the ELISA plate at 1 ug/ml; also called Cdk6 protein; not shown: N-terminal His tag of the bought protein
Assay: ELISA, Cdk6 coated on plate, p15 variant at 0-10 uM, anti-GST primary and HRP secondary antibody, absorbance 450 nm

T1 sequence (Q00534 whole entry, the tested form may be a part): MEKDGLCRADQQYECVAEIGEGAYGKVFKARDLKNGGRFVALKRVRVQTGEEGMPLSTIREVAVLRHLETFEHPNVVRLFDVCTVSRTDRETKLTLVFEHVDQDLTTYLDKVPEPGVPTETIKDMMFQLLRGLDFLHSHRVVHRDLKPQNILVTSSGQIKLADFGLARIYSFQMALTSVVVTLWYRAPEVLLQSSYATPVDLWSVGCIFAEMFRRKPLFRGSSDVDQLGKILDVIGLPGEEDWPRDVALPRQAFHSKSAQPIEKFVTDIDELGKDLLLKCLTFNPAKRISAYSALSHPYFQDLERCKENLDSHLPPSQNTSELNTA

B1: human p15 protein variant (SEQ ID NO: 2) (other)
chain: MREENKGMPSGGGSDEGLASAAARGLVEKVRQLLEAGADPNGVNRFGRRAIQVMMMGSARVAELLLKHGAEPNSADPATSTRPVHDAAREGFLDTLVVLHRAGARLDARDAWGRTPVDLAEERGHRDVAGYLRTATGD
notes: Expressed in E. coli from pET21b (NdeI/XhoI) and purified on a HisTrap column and by SEC; also called mt p15; p15INK4b variant
binding result: binds
